# Reference: US20240325495A1, “FUSION PROTEINS FOR THE TREATMENT OF DISEASE” (Bristol-Myers Squibb Company, priority 2020, published 2024)
# Where two headings read alike, the source gives them in different places.
# Key:
# [1] = target: T1, IL-2Rβγ (as a pre-assembled heterodimer) (Mus musculus, UniProt P16297+P34902); assay: Binding affinity to mouse IL-2Rβγ
# T1 sequence (P16297 27-240 limits assumed): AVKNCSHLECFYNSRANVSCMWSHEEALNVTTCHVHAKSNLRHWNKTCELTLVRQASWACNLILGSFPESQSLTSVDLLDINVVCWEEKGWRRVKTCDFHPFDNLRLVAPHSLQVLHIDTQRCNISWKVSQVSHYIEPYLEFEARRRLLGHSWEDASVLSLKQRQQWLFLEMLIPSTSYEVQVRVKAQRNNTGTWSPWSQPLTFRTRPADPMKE
# T1 sequence (P34902 23-263 limits assumed): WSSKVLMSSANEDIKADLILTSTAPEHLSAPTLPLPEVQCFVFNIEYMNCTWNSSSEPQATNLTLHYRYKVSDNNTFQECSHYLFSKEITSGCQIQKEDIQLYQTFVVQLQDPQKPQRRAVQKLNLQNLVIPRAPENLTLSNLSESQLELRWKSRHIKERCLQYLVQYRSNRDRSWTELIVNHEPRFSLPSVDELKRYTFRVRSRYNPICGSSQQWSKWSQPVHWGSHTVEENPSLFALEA
# [2] = test system: pSTAT5 in Tregs, Tconv, CD8 cells and NK cells; assay: Whole blood pSTAT5 assay, selectivity across cell types; type: cell-based
# [3] = Nonclinical pharmacokinetics in monkeys; type: in vivo
# Description: Various in vitro and in vivo studies were conducted to characterize the PK of BMS-986326 in the nonclinical setting.
# rats = assay: Toxicity studies in rats: ADA and PD effects; type: in vivo
# Text: (§1) The single- and repeat-dose toxicity of BMS-986326 were characterized in a series of studies in rats for up to 2 weeks and in monkeys up to 12 weeks using selected dosing frequencies. Pivotal good laboratory practice (GLP) repeat-dose studies in both species employed SC administration of BMS-986326 and consisted of two 2-week studies in rats using differing dose frequencies (once weekly [QW] vs twice weekly [2QW]), a 2-week once weekly dosing study in monkeys, and a 12-week (once every 3 week, Q3W) dosing study in monkeys. In addition, single-dose exploratory studies were initially completed in both rats and monkeys to explore the tolerability of BMS-986326, and a single-dose GLP IV toxicity and cardiovascular safety study was also completed in telemeterized monkeys using IV dosing to support IV administration in the first-in-human (FIH) single-ascending dose (SAD) study (IM034001).
# In rats, BMS-986326 was noted to be highly immunogenic, with ADA formation occurring in 84% of BMS-986326-treated rats. In general, the presence of ADA was associated with reduced exposure and loss of PD activity, but was not associated with toxicity.
# Intended and unintended PD effects occurred in a dose-dependent manner across all doses of each toxicity study and were generally more pronounced in monkeys than in rats. As an IL-2R agonist, BMS-986326 induced maximal phosphorylation of STAT5 in Treg cells (72% to 95%) across all doses in rats and monkeys, increased Treg cells (up to 63× in monkeys) and/or CD25 expression on CD4 Tregs (up to 4.5× in rats), and raised serum levels of IL-10 (up to 2× in rats and 87× in monkeys). In addition to the desired pharmacologic effects on Tregs, BMS-986326 also led to unintended effects including dose-dependent activation of conventional CD4 and CD8 T cell populations and NK cells, with concomitant elevation of serum IL-5, MCP-1, and perforin. At higher doses of BMS-986326 when dosed weekly in monkeys, increases in B cells (1.6×) and other inflammatory cytokines such as […] (7.9×), IL-1Ra (49×), and IL-6 (5.1×) were also noted. […]
# monkeys [4] = assay: Pivotal single-dose IV toxicity and cardiovascular safety study in monkeys; type: in vivo
# Text: as §1
# Microscopically, there were dose-dependent multisystemic infiltrates of eosinophils and mononuclear cells in some tissues.
# monkeys [5] = assay: 12-week monkey toxicity study, SC Q3W
# Description: In the 12-week monkey study, dose range and frequencies were reduced compared to the 2-week study with BMS-986326 administered at 0.0625, 0.125, or 0.25 mg/kg SC Q3W (Days 1, 22, 43, and 64).
# Treg = assay: Phase 1 single ascending dose study, Cohort A4; type: in vivo, human; details: Cohort A4, 3 mg single intravenous infusion, compared to placebo; preliminary
# Description: BMS-986326 is assessed in a Phase 1, randomized, double-blind, placebo-controlled, single ascending doses (SAD) study to evaluate the safety, tolerability, pharmacokinetics (PK), and pharmacodynamics (PD) of single doses of BMS-986326 in healthy adult participants.
# Blood samples are collected and measured by flow cytometry for quantitating immune cells such as Treg, Tconv, follicular helper T cells (Tfh), B cells, and NK cells by surface markers that may include, but not limited to, cell lineage and activation markers CD3, CD4, CD8, CD14, CD25, CD39, CD45, CD45RA, CD56, CD127, Foxp3, Helios, CXCR5, CCR7, and Ki67. Blood samples are also collected and measured by flow cytometry for determining BMS-986326 engagement to Treg, Tconv, CD8 T cells, and NK cells identified by pSTAT5.
# Preliminary Results from BMS-986326 Cohort A4 (3 mg Single Intravenous Infusion)
# monkeys [6] = details: monkey, in vivo, sc
# monkeys [7] = assay: Single-dose exploratory tolerability PK/PD study, SC, monkeys
substance,measurement,setting,value
"BMS-986326: recombinant fusion protein of human IL2 and extracellular domain of human CD25, (GGGS)3 linker, non-covalent self-blocking homodimer",Kd,[1],> 4 µM
same,% of Tregs pSTAT5+,[2]; highest concentration of drug,> 90%
same,"% pSTAT5+ cells in Tconv, CD8 cells and NK cells",[2]; highest concentration of drug at 71 nM,< 50%
same,total serum clearance (CLTs),[3],18.5 mL/day/kg
same,steady-state volume of distribution (Vss),[3]; IV,0.0734 L/kg
same,absolute bioavailability,[3]; SC dosing,46%
same,apparent elimination half-life (T-HALF),[3]; SC dosing,79.2 h
same,time of maximum concentration (Tmax),[3]; SC dosing,24 h
same,"ADA formation, % of treated rats",rats,84%
same,increase in CD25 expression on CD4 Tregs,rats,up to 4.5 ×
same,increase in serum levels of IL-10,rats,up to 2 ×
same,"blood pressure, CLS-like effects, hemodynamic and electrocardiographic parameters","monkeys [4]; monkey, in vivo, iv","no decreases in blood pressure, CLS-like effects, or other effects on hemodynamic or electrocardiographic parameters"
same,increase in eosinophils,"monkeys [4]; monkey, in vivo, iv",up to 91.6 ×
same,mean AUC [0-336 h] across all doses,"monkeys [4]; monkey, in vivo, iv",≤ 757 µg·h/mL
same,increased heart rate relative to baseline,"monkeys [4]; monkey, in vivo, iv, 0.5 mg/kg",4%
same,transient increase in mean body temperature,"monkeys [4]; monkey, in vivo, iv, 0.5 mg/kg",up to 1.1 °C
same,clinical tolerability,"monkeys [4]; monkeys, single IV 0.05, 0.15 or 0.5 mg/kg",clinically well tolerated at all doses
same,no-observed-adverse-effect level (NOAEL),"monkeys [4]; monkeys, single IV dose",0.5 mg/kg
same,NOAEL AUC[0-336 hours],monkeys [4]; single-dose monkey toxicology study,≤ 757 μ·h/ml
same,NOAEL AUC[0-504 hours],monkeys [5]; 12-week (once every 3 weeks) SC monkey toxicology study,≤ 306 μ·h/ml
same,magnitude of increase in Tregs relative to increase in conventional T cells,"monkeys [5]; 12-week monkey study, Q3W, across the dose range",≤ 2 times
same,eosinophilic or mononuclear cell infiltration into other tissues,"monkeys [5]; monkey, in vivo, sc",no eosinophilic or mononuclear cell infiltration into other tissues
same,NOAEL,"monkeys [5]; monkeys, 12-week SC Q3W",0.25 mg/kg/dose
same,mean AUC at NOAEL,"monkeys [5]; monkeys, […] Q3W",306 µg·h/mL
same,Treg versus baseline levels,Treg,increased from baseline levels
same,AUC,monkeys [6]; 0.075 mg/kg,approximately 48 μg·h/mL
same,AUC,monkeys [6]; 0.75 mg/kg,~407 µg·h/mL
same,AUC[INF],monkeys [6]; 0.75 mg/kg,407 µg·h/mL
same,expansion and proliferation of Tconv and CD8+ T cells,monkeys [7]; 2 highest doses tested,dose-dependent expansion and proliferation
same,fold increase of % Treg above pre-dose at peak,monkeys [7]; single SC […],4.8 fold
same,dose not tolerated,monkeys [7]; single SC dose,2.5 mg/kg
same,well tolerated doses,monkeys [7]; single SC dose,up to 0.75 mg/kg
